16 molecules from patent publication US20240409645A1 (DUALYX, published 2024) can be followed below.

First the molecules themselves.
T1: mouse IL-2Rγ (mouse, UniProt P34902 23-263, limits assumed)
T1 construct: Recombinant mouse IL-2Rγ protein coated on the ELISA plate or immobilised on the CM5 chip; also called mo IL-2R
T1 sequence (looked up): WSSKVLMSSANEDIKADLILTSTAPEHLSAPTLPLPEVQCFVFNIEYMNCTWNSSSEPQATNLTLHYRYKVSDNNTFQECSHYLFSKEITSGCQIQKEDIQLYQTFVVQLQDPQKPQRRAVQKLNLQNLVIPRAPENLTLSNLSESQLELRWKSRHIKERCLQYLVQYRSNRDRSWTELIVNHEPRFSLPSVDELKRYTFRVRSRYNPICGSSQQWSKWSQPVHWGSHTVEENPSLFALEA

T2: cynomolgus monkey IL-2Rγ/CD132 subunit (cynomolgus monkey, UniProt A0A2K5VGJ6 23-262)
T2 construct: also called Cyno IL-2R subunit
T2 sequence: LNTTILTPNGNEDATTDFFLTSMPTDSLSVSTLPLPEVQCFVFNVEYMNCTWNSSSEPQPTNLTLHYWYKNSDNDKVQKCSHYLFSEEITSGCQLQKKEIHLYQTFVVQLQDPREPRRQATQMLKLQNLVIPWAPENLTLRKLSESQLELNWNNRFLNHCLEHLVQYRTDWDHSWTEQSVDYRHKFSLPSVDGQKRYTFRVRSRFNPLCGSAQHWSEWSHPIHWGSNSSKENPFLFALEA

T3: human common cytokine receptor γ-chain (γc; IL-2Rγ; CD132), recombinant protein (human, UniProt P31785 23-262)
T3 construct: also called human IL-2R subunit CD132
T3 sequence: T2 sequence with A14T, T16A, S22T, R141H, S228T

T4: human IL-2Rγ (common cytokine receptor γ-chain) (human, UniProt P31785 23-262, limits assumed)
T4 construct: Recombinant human IL-2Rγ protein coated on the ELISA plate or immobilised on the CM5 chip; also called hu IL-2R; CD132
T4 sequence: T2 sequence with A14T, T16A, S22T, R141H, S228T

B1: FJ1427_P035MP07C12 (VHH)
VHH: QVQLVESGGGLVQAGGSLRLSCAASGRSLSRDAMGWFRQAPGKEREFVAVMSWGGDTFYTDSVEGRFTFSRDNAKNAVYLEMNDLQPEDTAVYYCAAAPTSFATTAYSSSNSYSYWGRGTQVTVSS
notes: Tested as soluble VHH fragment in periplasmic extract (P.E.); also called Clone nr
B2: FJ1427_P035MP07F12 (VHH)
VHH: EVQLVESGGGLVQAGDSLRLSCVASGRTLSRCAMGWFRKAPGKEREYVAISSWGGDTFYEDSVEGRFTFSRDNAKNTVYLQMNSLRPEDTAVYYCAAAPTSFATTAYSSSNSYAYWGQGTQVTVSS
notes: Tested as soluble VHH fragment in periplasmic extract (P.E.); also called Clone nr; 670
B3: FJ1427_P035MP07H11 (VHH)
VHH: QVQLVESGGGLVQPGGSLRLSCAASGRTLSRYAMGWFRQAPGKDREFVAASSWGGDTFYADSVEGRFTFSRDNAENATYLQMNSLQPEDTAVYYCAAAPTSFATTAYSSSNSYGSWGQGTQVTVSS
notes: Tested as soluble VHH fragment in periplasmic extract (P.E.); also called Clone nr; 664
B4: 27-MP04G01 VHH-hFc, monospecific bivalent (Fc fusion)
chain: QVQLVESGGGLVQAGGSLTLSCAAPGRTFGTDVVGWFRQAPGKEREFVASISRSGDGIYYDDSVKGRFTISRNNAWNTVNLQMNSLKVEDTAVYYCAAGDGWSTYDYWGQGTQVTVSS
notes: IgG1 Fc LALA-PG; not shown: human IgG1 CH2 and CH3 domains (Fc)
B5: 29-MP04H02 VHH-hFc, monospecific bivalent (Fc fusion)
chain: QVQLVESGGGLVQAGGSLRLACVASGLTFDNYYMGWFRQAPGKEREFVAGIIWNGDHTAYADSIKGRFTISRDNAKNTAYLRMNSLKPEDTAVYYCAATFWIERATTPDIGQYAYWGQGTQVTVSS
notes: as for B4
B6: 36-MP07F02 VHH-hFc, monospecific bivalent (Fc fusion)
chain: B3 VHH with P14A, K43S, D44E, E75K, T78V, V92A, A103P, G114A, S115Y
notes: as for B4
B7: 28-MP04D02 VHH-hFc, monospecific bivalent (Fc fusion)
chain: QVQLVESGGGLVQAGGSLRLSCAASGRTLSRYAMGWFRQAPGKEREFVTANSWGGDTYYADSVQGRFTFSRDNAKNTVYLQMNSLQPEDTAVYYCAAAPTSFATTAYSGSNSYAYWGQGTQVTVSS
notes: IgG1 Fc LALA-PG; also called clone 28; not shown: human IgG1 CH2 and CH3 domains (Fc)
B8: 34-MP04A12 VHH-hFc, monospecific bivalent (Fc fusion)
chain: QVQLVESGGGLVQAGSSLRLSCAASGRTLSRLAMGWFRQAPGKEREFVAVNSWGGDTFYADSVEGRFTYSRDNAKSAVYLQMNSLQPEDTAVYYCAAAPTSFATTAYSSSNSYAYWGQGAQVTVSS
notes: as for B4
B9: 38-MP07A11 VHH-hFc, monospecific bivalent (Fc fusion)
chain: B1 VHH
notes: as for B4
B10: 37-MP07F09 VHH-hFc, monospecific bivalent (Fc fusion)
chain: B7 chain with F47Y, T49A, A50I, N51D, Y58F, Q64E, T77E, A97G, G109S, A114R
notes: as for B4
B11: 27-MP04G01 VHH (periplasmic extract) (VHH)
VHH: B4 chain
notes: soluble VHH in periplasmic extract
B12: 29-MP04H02 VHH (periplasmic extract) (VHH)
VHH: B5 chain
notes: as for B11
B13: 32-MP04A08 VHH (periplasmic extract) (VHH)
VHH: QVQLVESGGGLVQAGGSLRLSCAASGRTFGSTAVGWFRQVPGKEREFVSAINRSGSATTYADSVKGRFTISRDNAKNTVYLQMNSLTPEDTGVYYCAADSLPYGRPYYFQRSAGEYDYWGQGTQVTVSS
notes: as for B11
B14: 36-MP07F02 VHH (periplasmic extract) (VHH)
VHH: B7 chain with K43S, T49A, N51S, Y58F, Q64E, T77A, V92A, A103P, G109S
notes: as for B11
B15: 32-MP04A08 VHH-hFc, monospecific bivalent (Fc fusion)
chain: B13 VHH
notes: as for B4
B16: 35-MP07G01 VHH-hFc, monospecific bivalent (Fc fusion)
chain: QVQLQESGGGLVQGGGSLRLSCAASGGIFSSYAMGWFRQAPGKEREFVAAISRSGRSTNYADSVKGRFTISRDNAKSTVYLQMNSLKPEETAVYYCAAGRYYNSAYDPSPGDFGSWGHGTQVTVSS
notes: as for B4

Positions count from the first letter of the chain named.

One assay has as its target T1, mouse IL-2Rγ. In words: SPR off-rate ranking, periplasmic extract over immobilised mouse IL-2Rγ. The method, then: (§1) SPR was performed to determine dissociation rates using Biacore 3000 instrument (GE Healthcare). Briefly, human and mouse IL-2R proteins were immobilized on carboxylmethyl dextran sensor chip (CM5) at approximately 2500 RUs using amine coupling in acetate buffer (GE Healthcare). The VHH-containing P.E. were loaded with a flow rate of 30 uL/min and the off-rates were measured over a 120s period.
B1 had an off-rate (koff) of 0.0146 s⁻¹.

Molecule B2 came in with a koff of 0.00792 s⁻¹.

For B3, the off-rate constant (koff) is 0.066 s⁻¹.

The target in a further assay is T2, cynomolgus monkey IL-2Rγ/CD132 subunit. The assay is described as follows: ELISA, bivalent; EC50 cyno vs human subunit. The protocol: (§2) Monospecific monovalent and bivalent IL-2Rα-, IL-2Rβ- and IL-2Rγ-specific antibodies that were selected on human IL-2R subunits, were evaluated for their cross-reactivity in an ELISA. Human and cynomolgus monkey receptor subunits (Acrobiosystems, KactusBiosystems) were coated at 1 μg/mL in PBS (pH 7.4) in a Maxisorp plate (Nunc) and incubated overnight at 4° C. The plates were further washed with PBS-Tween pH 7.4 and incubated with 1% cascin/PBS-Tween blocking solution for 1 hour shaking at 400 rpm. Subsequently, the plate was washed three times with PBS-Tween pH 7.4, after which the test antibodies diluted in 0.1% casein/PBS-Tween were added to the plate and incubated for 1 hour. The plate was again washed three times, after which goat anti-human IgG Fc (HRP) detection antibody (abcam) was added to the plate and incubated for 30 min. The colouring reaction was performed with TMB (Sigma-Aldrich) and stopped with 0.5N H₂SO₄.
(§3) Absorbance was measured at 450 nm with the reference wavelength of 620 nm using spectrophotometer. Final analysis and graphic output were performed with GraphPad Prism version 8 (GraphPad Software). The dose-response binding curves were fit to a nonlinear regression model (log (agonist) vs. response with a variable slope (four parameters)).
In turn, B4 displayed a Fold change of 1.1 fold.

B5 came in with a Fold change of 1.4 fold.

The molecule B6 gave a Fold change of 1 fold.

In the case of B7, the Fold change came out at 1.1 fold.

In the case of B8, the Fold change came to 1 fold.

Molecule B9 had a Fold change of 1.2 fold.

B10 showed a Fold change of 1 fold.

For another assay, the target named is T3, human common cytokine receptor γ-chain …. The assay is described as follows: P.E. off-rate SPR. The essentials: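 Immobilised receptor density: ~2500 RU (CM5, amine coupling). Analyte: VHH-containing P.E., 30 uL/min. Read-out: off-rate over 120s.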
Consider B11, for which the koff worked out at 0.00131 s⁻¹.

For B12, the koff worked out at 0.00625 s⁻¹.

On to B13, for which the koff worked out at 0.0616 s⁻¹.

For the molecule B14, the koff stood at 0.00331 s⁻¹.

Another assay deals with T4, human IL-2Rγ (common cytokine receptor …). In words: SPR off-rate ranking, periplasmic extract over immobilised human IL-2Rγ. The protocol:
as §1
On to B1, for which the koff was determined as 0.00197 s⁻¹.

B2 returned a koff of 0.00197 s⁻¹.

Regarding B3, the koff turned out to be 0.00252 s⁻¹.

The next assay addresses T2, cynomolgus monkey IL-2Rγ/CD132 subunit. In words: ELISA, bivalent VHH-hFc. The protocol: as §2, §3
B4 gave an EC50 of 0.147 nM.

B5 came in with an EC50 of 0.26 nM.

With B15, the binding result is recorded as “no binding”.

On to B6, for which the response was half-maximal at 0.121 nM (EC50).

In the case of B7, the EC50 was 0.113 nM.

With B8, it took 0.112 nM to reach a half-maximal effect (EC50).

For B9, the EC50 was 0.133 nM.

B10 came in with a half-maximal effective concentration (EC50) of 0.141 nM.

B16: the binding result was “no binding”.

In another assay the target is T3, human common cytokine receptor γ-chain …. The assay is described as follows: ELISA, bivalent VHH-hFc. The protocol: as §2, §3
Regarding B4, the concentration giving a half-maximal response (EC50) came out at 0.131 nM.

For B5, the concentration giving a half-maximal response (EC50) stood at 0.179 nM.

For the molecule B15, the EC50 worked out at 0.14 nM.

Regarding B6, the EC50 stood at 0.117 nM.

For the molecule B7, the EC50 worked out at 0.107 nM.

On to B8, for which the half-maximal effective concentration (EC50) was 0.117 nM.

In the case of B9, the EC50 amounted to 0.113 nM.

B10: the EC50 came to 0.137 nM.

For B16, the binding result is listed as “no binding”.

The next assay has the same target. In words: P.E. binding ELISA. In a few lines:
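Human or mouse IL-2Rα, IL-2Rβ or IL-2Rγ protein coated directly overnight at 4° C, blocked with 4% Marvel/PBS for 1 hour.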
Turning to B11, the OD450 nm stood at 0.362 OD450 nm.

On to B12, for which the OD450 nm came out at 0.157 OD450 nm.

For the molecule B13, the OD450 nm is 0.407 OD450 nm.

Consider B14, for which the OD450 nm stood at 0.896 OD450 nm.

Another assay concerns the target T1, mouse IL-2Rγ. In words: binding ELISA, periplasmic extract on coated mouse IL-2Rγ. The method, then:
(§4) In a binding ELISA, human or mouse IL-2Rα, IL-2Rβ and IL-2Rγ proteins were coated directly on maxisorp microtiter plates overnight at 4° C. Free binding sites were blocked using 4% Marvel in PBS for 1 hour. Next, 1:5 dilution of P.E. in 1% Marvel/PBS were added to wells and incubated for 1 hour. […] Binding specificity was determined based on O.D. at 450 nm values compared to negative controls.
Take B1: the “P.E. binding ELISA OD450” value came out at 0.071 OD450 nm.

In the case of B2, the “P.E. binding ELISA OD450” value worked out at 0.341 OD450 nm.

As to B3, the “P.E. binding ELISA OD450” value was 0.057 OD450 nm.

The target of a further assay is T4, human IL-2Rγ (common cytokine receptor …). The assay is described as follows: binding ELISA, periplasmic extract on coated human IL-2Rγ. The protocol:
as §4
As to B1, the “P.E. binding ELISA OD450” value was determined as 0.426 OD450 nm.

With B2, the “P.E. binding ELISA OD450” value worked out at 0.823 OD450 nm.

For B3, the “P.E. binding ELISA OD450” value was found to be 1.32 OD450 nm.
